Measurements published in article PMC11064669.

How the values were obtained:
[1] = target: LC3B residues 1-120 F52A/L53A (UniProt Q9GZQ8); experiment: ITC
LC3B residues 1-120 WT = LC3B residues 1-120 WT (UniProt Q9GZQ8); experiment: ITC

- Kd [1]: > 300 µM
- Kd (LC3B residues 1-120 WT): 44.4 µM
- stoichiometry N (LC3B residues 1-120 WT): 0.523
Substance: tepsin LIR motif peptide (residues 185-193)
